{
  "source": "patent US20230233632A1",
  "about": "(MYCOMAGIC BIOTECHNOLOGY, published 2023)",
  "molecular_target": "T1, ACE2 tested for a complex with GMI by immunoprecipitation (human, UniProt Q9BYF1 18-805)",
  "T1 construct": "also called hACE2; angiotensin converting enzyme 2",
  "T1 sequence (Q9BYF1 18-805 limits assumed, one chain of several)": "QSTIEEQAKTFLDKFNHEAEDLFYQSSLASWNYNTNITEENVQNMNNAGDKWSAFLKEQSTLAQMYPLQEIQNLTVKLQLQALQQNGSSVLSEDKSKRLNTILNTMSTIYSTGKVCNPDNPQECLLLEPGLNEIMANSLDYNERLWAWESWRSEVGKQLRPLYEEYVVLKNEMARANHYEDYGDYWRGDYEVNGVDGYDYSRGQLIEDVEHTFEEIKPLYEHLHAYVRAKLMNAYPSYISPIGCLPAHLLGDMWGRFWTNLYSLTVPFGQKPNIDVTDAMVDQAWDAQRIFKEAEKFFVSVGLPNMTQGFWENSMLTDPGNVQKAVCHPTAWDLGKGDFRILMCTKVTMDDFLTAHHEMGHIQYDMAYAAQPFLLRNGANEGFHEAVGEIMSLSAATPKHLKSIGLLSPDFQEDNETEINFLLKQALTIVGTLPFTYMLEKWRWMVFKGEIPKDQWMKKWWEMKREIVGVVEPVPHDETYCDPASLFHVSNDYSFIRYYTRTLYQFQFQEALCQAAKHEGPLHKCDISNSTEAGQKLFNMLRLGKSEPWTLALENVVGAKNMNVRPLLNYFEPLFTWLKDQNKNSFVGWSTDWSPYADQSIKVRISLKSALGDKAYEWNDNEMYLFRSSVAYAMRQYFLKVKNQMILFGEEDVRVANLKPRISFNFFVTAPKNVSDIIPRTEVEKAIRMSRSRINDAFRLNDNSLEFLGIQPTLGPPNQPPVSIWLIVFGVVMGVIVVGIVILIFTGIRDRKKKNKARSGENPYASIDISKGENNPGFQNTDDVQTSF",
  "test": "immunoprecipitation",
  "data": [
    {"binder": "Ganoderma immunomodulatory protein (GMI) from Ganoderma microsporum (other, also called His tagged-GMI; fungal immunomodulatory protein (FIP)) MSDTALIFTLAWNVKQLAFDYTPNWGRGRPSSFIDTVTFPTVLTDKAYTYRVVVSGKDLGVRPSYAVESDGSQKINFLEYNSGYGIADTNTIQVYVIDPDTGNNFIVAQWN", "values": [
      {"measurement": "binding result", "value": "no binding"}
    ]}
  ]
}
